Measured values from patent US20230123187A1.

Biological target: Apolipoprotein E receptor-2 (Apoer2) (human) (UniProt Q14114)
Test: cell-based or functional assay

UniProt Q14114, sequence (Q14114 33-963): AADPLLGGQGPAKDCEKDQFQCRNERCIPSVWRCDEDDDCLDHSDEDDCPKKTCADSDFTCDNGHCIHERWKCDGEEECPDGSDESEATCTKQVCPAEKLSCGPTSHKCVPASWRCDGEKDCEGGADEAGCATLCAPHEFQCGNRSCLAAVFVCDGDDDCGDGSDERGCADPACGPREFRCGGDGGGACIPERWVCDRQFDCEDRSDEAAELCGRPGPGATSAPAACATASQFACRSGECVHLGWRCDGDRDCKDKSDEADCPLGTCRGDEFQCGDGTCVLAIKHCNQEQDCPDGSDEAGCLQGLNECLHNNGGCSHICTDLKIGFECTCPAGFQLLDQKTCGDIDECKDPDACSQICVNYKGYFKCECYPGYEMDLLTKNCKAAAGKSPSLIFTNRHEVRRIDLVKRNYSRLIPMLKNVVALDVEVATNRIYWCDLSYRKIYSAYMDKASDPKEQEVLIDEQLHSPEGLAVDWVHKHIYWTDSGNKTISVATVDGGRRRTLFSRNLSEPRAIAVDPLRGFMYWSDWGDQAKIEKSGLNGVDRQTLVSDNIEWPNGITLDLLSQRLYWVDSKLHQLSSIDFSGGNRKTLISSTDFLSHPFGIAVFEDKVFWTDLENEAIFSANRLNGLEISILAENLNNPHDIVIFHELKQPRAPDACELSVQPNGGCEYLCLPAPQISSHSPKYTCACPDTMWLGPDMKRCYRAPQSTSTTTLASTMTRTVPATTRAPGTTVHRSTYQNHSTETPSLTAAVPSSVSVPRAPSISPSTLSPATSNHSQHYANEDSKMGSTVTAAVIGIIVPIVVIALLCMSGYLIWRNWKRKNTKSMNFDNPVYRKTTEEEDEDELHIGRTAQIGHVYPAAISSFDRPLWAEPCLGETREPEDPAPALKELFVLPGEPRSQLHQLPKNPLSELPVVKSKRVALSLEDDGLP

## Recombinant Reelin (ligand)
  U937 monocyte adhesion to HAEC monolayers: > 2 fold
